Legend:
purified protein [1] = substrate: COc1cccc(OC)c1O; test: purified protein; assay type: biochemical, Bacillus subtilis; conditions: pH 7, O2 as co-substrate, DMP 0-12.5 mM, substrate inhibition at high DMP
purified protein [2] = substrate: COc1cccc(OC)c1O; test: purified protein; assay type: biochemical, Shouchella clausii; conditions: pH 7 (implied by context), O2 as co-substrate, DMP 0-12.5 mM, substrate inhibition at high DMP

B1: cotA from B. subtilis (Bacillus subtilis subsp. subtilis str. 168) (protein)
chain: MTLEKFVDALPIPDTLKPVQQSKEKTYYEVTMEECTHQLHRDLPPTRLWGYNGLFPGPTIEVKRNENVYVKWMNNLPSTHFLPIDHTIHHSDSQHEEPEVKTVVHLHGGVTPDDSDGYPEAWFSKDFEQTGPYFKREVYHYPNQQRGAILWYHDHAMALTRLNVYAGLVGAYIIHDPKEKRLKLPSDEYDVPLLITDRTINEDGSLFYPSAPENPSPSLPNPSIVPAFCGETILVNGKVWPYLEVEPRKYRFRVINASNTRTYNLSLDNGGDFIQIGSDGGLLPRSVKLNSFSLAPAERYDIIIDFTAYEGESIILANSAGCGGDVNPETDANIMQFRVTKPLAQKDESRKPKYLASYPSVQHERIQNIRTLKLAGTQDEYGRPVLLLNNKRWHDPVTETPKVGTTEIWSIINPTRGTHPIHLHLVSFRVLDRRPFDIARYQESGELSYTGPAVPPPPSEKGWKDTIQAHAGEVLRIAATFGPYSGRYVWHCHILEHEDYDMMRPMDITDPHK
notes: full length, 1542-bp PCR product from genomic DNA in pETM13 (p130), E. coli BL21(DE3); no fusions or tailing amino acids
Protein B1 has a Km (purified protein [1]) of 340 µM.

B2: cotA from B. clausii (Shouchella clausii KSM-K16) (protein)
chain: MELEKFVDPMPIMKTAIPKKTSKDGDYYEIEMKEFSQKLHRDLNPTRLWGYDGQFPGPTIEVMRGKPARIKWMNNLPDTHFLPIDRSIHHVAHEPEVRTVVHLHGSETTPASDGYPEAWFTKDFAEVGSFFEQETYEYPNDQRAATLWYHDHAMGITRLNVYAGLSGLYIIRDPREEQLNLPKGEFDIPLLIQDRSFNDDGSLFYPAQPANPAPNLPNPSVLPFFVGDTILVNGKVWPYLQVEPRKYRFRILNGSNSRSYQLALDSEAPFYQIASDGGLLRRTVSLQAFDIRPAERIEAIIDFSKFEGQTITLKNNASTDATADVMQFQVVLPLSGEDTSIIPQNLSYIPSLQQNDVKRIRNLKISGTTDEYGRPLLLLNNKLWSDPVEEKPCLGTTEIWSFVNVTNVPHPMHIHLVQFQLLDHRAFNVELYNENGQIELVGPTIPPKINERGWKDTITAPAGQITRVIARFAPFSGYYVWHCHILEHEDYDMMRPFVVIDPKTEKERR
notes: full length, codon-optimized gene in pETM13 (p133), E. coli BL21(DE3)
Work on B2 yielded a Km (purified protein [2]) of 1020 µM.

From PMC4051777, “Characterization of an Alkali- and Halide-Resistant Laccase Expressed in E. coli: CotA from Bacillus clausii” (PLoS ONE, 2014)
